B1: mAb 1E6 (human) (antibody, V domains shown)
VH: EVQLVQSGAEVKKPGSSVKVSCKASGGTVIDYPITWVRQAPGQGLEWVGGFVPLFRTSNYGQKFQGRVTITADKSTSTASMELNSLTSEDTAIYYCARGDTAMGPFDYWGQGTLVTVSS
VL: SYVLTQPPSLSVAPGKTATLTCGGNNIAGKTVHWYQQRPGQAPVLVISYDSDRPSGIPERFSGSNSANTATLTISRVEAGDEADYYCQVWDRNSDHWVFGGGTKLTVL
notes: source: Expi293, purified (MabSelect SuRe, SEC); copies: 2 + 2
B2: chimeric antibody h12C1 (antibody, V domains shown)
VH: QVQLQESGPELVKPGASVKISCKASGYSFSDYNMSWVKQSNGKSLEWIGIIDPKYGTINYNQKFKGKATLTVDQASSTAYMQLNSLTSEDSAVYYCVRDYYGSSYFDYWGQGTTLTVSS
VL: DIVLTQSPSSIYASLGERVTLTCKASQDIHNYLNWFQQKPGKSPKTLIYRANRLVDGVPSRFSGGGSGQDYSLTISSLEFEDIGIYYCLQYDEFPPTFGGGTRLEIK
notes: also called humanized 12C1; source: Expi293, purified (MabSelect SuRe, SEC); copies: 2 + 2

Experiments:
Experiment in all cases: BLI
Conditions in all cases: both partners purified
fHbp m001207 = biological target: T1, fHbp m001207 (Neisseria meningitidis fHbp v3.28-based …, point mutant)
T1 chain: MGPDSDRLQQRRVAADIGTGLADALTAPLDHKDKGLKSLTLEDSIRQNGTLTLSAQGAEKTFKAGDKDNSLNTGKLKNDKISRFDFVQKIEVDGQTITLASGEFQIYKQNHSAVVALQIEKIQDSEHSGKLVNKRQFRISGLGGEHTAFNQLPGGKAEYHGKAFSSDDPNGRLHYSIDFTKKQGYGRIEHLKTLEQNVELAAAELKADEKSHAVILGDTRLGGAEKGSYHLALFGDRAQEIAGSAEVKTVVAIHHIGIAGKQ

fHbp m001690 = biological target: T2, fHbp m001690 (Neisseria meningitidis, engineered fHbp …, point mutant)
T2 chain: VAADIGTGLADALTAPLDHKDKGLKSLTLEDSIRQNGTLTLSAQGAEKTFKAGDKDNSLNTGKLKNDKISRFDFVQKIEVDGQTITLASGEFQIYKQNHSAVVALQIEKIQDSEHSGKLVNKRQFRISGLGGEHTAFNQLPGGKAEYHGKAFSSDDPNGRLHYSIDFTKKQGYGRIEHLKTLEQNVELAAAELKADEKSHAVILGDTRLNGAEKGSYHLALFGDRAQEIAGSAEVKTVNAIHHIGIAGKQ

fHbp m001531 = biological target: T3, fHbp m001531 (Neisseria meningitidis, fHbp …, point mutant)
T3 chain: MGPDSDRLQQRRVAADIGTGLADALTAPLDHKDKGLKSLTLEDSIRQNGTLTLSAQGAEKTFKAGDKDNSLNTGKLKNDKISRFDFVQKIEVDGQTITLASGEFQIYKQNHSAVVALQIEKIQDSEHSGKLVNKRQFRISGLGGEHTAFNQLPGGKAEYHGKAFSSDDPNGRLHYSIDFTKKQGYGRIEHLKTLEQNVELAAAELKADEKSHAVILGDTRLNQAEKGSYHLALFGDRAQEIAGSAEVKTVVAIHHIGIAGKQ

fHbp m001200 = biological target: T4, fHbp m001200 (Neisseria meningitidis fHbp v3.28-based …, point mutant)
T4 chain: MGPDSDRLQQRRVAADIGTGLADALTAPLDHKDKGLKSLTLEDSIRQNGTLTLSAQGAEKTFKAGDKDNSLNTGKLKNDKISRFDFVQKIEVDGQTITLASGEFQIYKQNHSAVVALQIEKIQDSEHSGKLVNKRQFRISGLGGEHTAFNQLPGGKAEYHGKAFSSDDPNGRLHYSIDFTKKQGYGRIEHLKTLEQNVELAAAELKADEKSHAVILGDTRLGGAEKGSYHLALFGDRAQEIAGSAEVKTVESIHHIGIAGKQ

fHbp m001177 = biological target: T5, fHbp m001177 (Neisseria meningitidis fHbp v3.28-based …, point mutant)
T5 chain: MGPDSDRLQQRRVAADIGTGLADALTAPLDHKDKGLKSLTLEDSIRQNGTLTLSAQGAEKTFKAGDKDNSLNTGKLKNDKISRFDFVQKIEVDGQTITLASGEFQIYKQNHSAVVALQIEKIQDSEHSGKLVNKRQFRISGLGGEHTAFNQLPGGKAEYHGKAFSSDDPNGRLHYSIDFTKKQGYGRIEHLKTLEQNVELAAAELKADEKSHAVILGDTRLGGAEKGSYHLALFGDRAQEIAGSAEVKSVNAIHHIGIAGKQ

fHbp m001672 = biological target: T6, fHbp m001672 (Neisseria meningitidis, fHbp …, point mutant)
T6 chain: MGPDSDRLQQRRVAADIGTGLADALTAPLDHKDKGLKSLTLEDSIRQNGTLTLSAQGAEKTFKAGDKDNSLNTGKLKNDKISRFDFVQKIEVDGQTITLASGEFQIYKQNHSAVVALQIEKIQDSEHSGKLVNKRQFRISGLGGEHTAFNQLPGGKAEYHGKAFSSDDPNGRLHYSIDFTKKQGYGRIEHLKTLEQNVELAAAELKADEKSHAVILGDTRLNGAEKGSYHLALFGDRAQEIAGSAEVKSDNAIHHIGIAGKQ

fHbp m002336 = biological target: T7, fHbp m002336 (Neisseria meningitidis fHbp v3.28, …, chimera)
T7 chain: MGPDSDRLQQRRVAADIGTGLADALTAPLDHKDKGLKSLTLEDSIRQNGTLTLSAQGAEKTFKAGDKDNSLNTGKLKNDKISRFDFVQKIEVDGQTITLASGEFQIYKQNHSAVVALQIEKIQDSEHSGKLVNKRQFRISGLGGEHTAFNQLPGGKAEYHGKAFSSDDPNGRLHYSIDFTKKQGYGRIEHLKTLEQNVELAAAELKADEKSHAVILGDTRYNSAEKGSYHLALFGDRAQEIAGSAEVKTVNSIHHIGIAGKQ

fHbp m002404 = biological target: T8, fHbp m002404 (Neisseria meningitidis fHbp v3.28, …, chimera)
T8 chain: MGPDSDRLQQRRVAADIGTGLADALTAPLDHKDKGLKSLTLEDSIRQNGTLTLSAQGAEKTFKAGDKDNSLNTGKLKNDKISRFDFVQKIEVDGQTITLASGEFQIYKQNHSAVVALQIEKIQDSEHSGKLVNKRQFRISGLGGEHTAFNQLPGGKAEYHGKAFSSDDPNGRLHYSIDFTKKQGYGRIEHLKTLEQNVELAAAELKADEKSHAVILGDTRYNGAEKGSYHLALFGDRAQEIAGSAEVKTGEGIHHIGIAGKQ

fHbp m001039 = biological target: T9, fHbp m001039 (Neisseria meningitidis fHbp v3.28, …, point mutant)
T9 chain: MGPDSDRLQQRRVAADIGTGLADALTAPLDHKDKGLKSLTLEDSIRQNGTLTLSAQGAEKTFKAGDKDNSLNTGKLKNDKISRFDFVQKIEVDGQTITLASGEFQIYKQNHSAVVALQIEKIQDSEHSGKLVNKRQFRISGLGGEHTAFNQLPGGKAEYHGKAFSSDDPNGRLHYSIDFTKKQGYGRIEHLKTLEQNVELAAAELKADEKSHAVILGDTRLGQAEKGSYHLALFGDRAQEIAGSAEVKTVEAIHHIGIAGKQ

Binder	Kd (fHbp m001207) [nM]	koff (fHbp m001207) [s⁻¹]	kon (fHbp m001207) [M⁻¹ s⁻¹]	Kd (fHbp m001690) [nM]	koff (fHbp m001690) [s⁻¹]	kon (fHbp m001690) [M⁻¹ s⁻¹]	Kd (fHbp m001531) [nM]	koff (fHbp m001531) [s⁻¹]	kon (fHbp m001531) [M⁻¹ s⁻¹]	Kd (fHbp m001200) [nM]	koff (fHbp m001200) [s⁻¹]	kon (fHbp m001200) [M⁻¹ s⁻¹]	Kd (fHbp m001177) [nM]	koff (fHbp m001177) [s⁻¹]	kon (fHbp m001177) [M⁻¹ s⁻¹]	Kd (fHbp m001672) [nM]	koff (fHbp m001672) [s⁻¹]	kon (fHbp m001672) [M⁻¹ s⁻¹]	Kd (fHbp m002336) [nM]	koff (fHbp m002336) [s⁻¹]	further results
B1	0.336	0.000155	459700 ± 4080	0.678	0.000298	438900 ± 1790	0.546	0.0002	367300 ± 1990	0.219	0.000303	1.385e+06 ± 5610	0.609	0.000279	457500 ± 1660	1	0.00032	320000 ± 1490	< 0.001	< 1e-07	kon (fHbp m002336): 676300 ± 4120 M⁻¹ s⁻¹; Kd (fHbp m002404): 0.429 nM; koff (fHbp m002404): 0.000144 s⁻¹; kon (fHbp m002404): 336700 ± 1540 M⁻¹ s⁻¹; Kd (fHbp m001039): 0.655 nM; koff (fHbp m001039): 0.00031 s⁻¹; kon (fHbp m001039): 473100 ± 1890 M⁻¹ s⁻¹
B2	80.8	0.014	174000 ± 4810	0.525	0.000185	351700 ± 1560	0.717	0.00022	307400 ± 2940	0.243	0.000202	830700 ± 4100	92.7	0.02257 ± 0.000177	244000 ± 9380	117	0.01791 ± 0.000106	154000 ± 3920	47.1	0.01231 ± 0.000116	kon (fHbp m002336): 261000 ± 9540 M⁻¹ s⁻¹; Kd (fHbp m002404): 125 nM; koff (fHbp m002404): 0.01534 ± 0.000107 s⁻¹; kon (fHbp m002404): 123000 ± 5460 M⁻¹ s⁻¹; Kd (fHbp m001039): 65.7 nM; koff (fHbp m001039): 0.0146 s⁻¹; kon (fHbp m001039): 223000 ± 3080 M⁻¹ s⁻¹

— publication PMC12319226 (Frontiers in Bioinformatics, 2025)
